Assay [1] has as its target T1, cynomolgus monkey IP-10 (cynomolgus monkey, UniProt A0A2K5WKN6 22-98).
T1 construct: endogenous serum IP-10 in the monkey studies; also called cynoIP-10; cyno IP10
T1 sequence: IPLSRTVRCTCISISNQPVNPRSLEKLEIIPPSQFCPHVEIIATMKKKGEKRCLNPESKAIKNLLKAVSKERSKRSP
The assay is described as follows: Biacore SPR, cynoIP-10. For orientation: SPR reads the build-up and loss of mass on a sensor chip optically.

Assay [2] addresses T2, human IP-10 (human, UniProt P02778 22-98).
T2 construct: The HDX-MS text says 'recombinant full length human IP-10'; An IP10 dimer was placed in the crystal structure; also called huIP-10; CXCL10
T2 sequence: T1 sequence with I1V, P32A, H38R
Kind of assay: SPR (Biacore) at 37 C, IgG1, human IP-10.

For assay [3], the target named is T3, human MIG (human, UniProt Q07325 23-125).
T3 construct: also called monokine induced by gamma interferon; CXCL9
T3 sequence: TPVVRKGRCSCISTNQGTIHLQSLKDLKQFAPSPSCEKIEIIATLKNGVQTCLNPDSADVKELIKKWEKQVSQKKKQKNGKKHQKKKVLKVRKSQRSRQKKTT
Kind of assay: Biacore SPR.

The target in the next assay is T4, human ITAC (human, UniProt O14625 22-94).
T4 construct: also called interferon-inducible T cell alpha chemoattractant; CXCL11
T4 sequence: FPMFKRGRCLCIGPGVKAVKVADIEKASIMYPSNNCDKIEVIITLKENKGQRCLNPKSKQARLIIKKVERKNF
Kind of assay: Biacore SPR.

For assay [4], the target named is T1, cynomolgus monkey IP-10. Kind of assay: in vivo Kd estimated by PK/PD modeling of free drug, free and total serum IP-10 in cynomolgus monkeys; in vivo Kd from PK/PD modeling in cynomolgus monkeys, not a direct binding assay.
In assay [5] the target is T2, human IP-10. Kind of assay: Biacore-based binding studies.
A further assay deals with T5, mouse IP-10 (mouse, UniProt P17515 22-98).
T5 sequence: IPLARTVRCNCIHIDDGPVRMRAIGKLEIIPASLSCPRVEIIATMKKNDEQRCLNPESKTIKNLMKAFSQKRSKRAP
Kind of assay: Biacore-based binding studies.

The target in assay [6] is T2, human IP-10. Kind of assay: Biacore SPR, huIP-10.
Assay [7] concerns the target T2, human IP-10. Kind of assay: Biacore kinetic analysis.
In assay [8] the target is T2, human IP-10. Kind of assay: SPR (Biacore) at 37 C, IgG1, human IP-10 (second row for IP10.1g1f).
Assay [9] deals with T3, human MIG. The assay is described as follows: Biacore SPR, MIG; Biacore, lot 3007: weak measured KD for MIG, about 17000 times weaker than for huIP-10 (0.01 nM).
Assay [10] concerns the target T1, cynomolgus monkey IP-10. The assay is described as follows: in vivo Kd estimated by PK/PD modeling in cynomolgus monkeys.
For assay [11], the target named is T2, human IP-10. Kind of assay: Biacore SPR, huIP-10 (text: limit of detection with the Biacore is 90 pM).
In assay [12] the target is T1, cynomolgus monkey IP-10. The assay is described as follows: cell-based or functional assay.
For assay [13], the target named is T2, human IP-10. The assay is described as follows: cell-based or functional assay.
The target of assay [14] is T1, cynomolgus monkey IP-10. The assay is described as follows: cell-based or functional assay. The source holds these as a separate data set.
Assay [15] has as its target T2, human IP-10. The assay is described as follows: whole cell binding assays with I125-IP-10 (CXCR3/300.19 and KM12SM cells).
Assay [16] deals with T3, human MIG. Kind of assay: Biacore SPR, MIG.

Residue numbers refer to the chain shown, from its start.

The text below walks through data of patent publication US20170158757A1 (Bristol-Myers Squibb, published 2017).

In general, Kd refers to the concentration at which binding is half-saturated. In general, koff refers to a measure of how fast the partners let go of each other. One may read the kon as the rate constant with which the complex forms.

B1: IP10.1 (antibody, human IgG1, kappa, V domains shown)
VH: QMQLVESGGGVVQPGRSLRLSCTASGFTFSNNGMHWVRQAPGKGLEWVAVIWFDGMNKFYVDSVKGRFTISRDNSKNTLYLEMNSLRAEDTAIYYCAREGDGSGIYYYYGMDVWGQGTTVTVSS
VL: not shown
notes: Human IgG1 (g1f) full-length antibody; Parent antibody of all variants; also called 6A5; antibody 6A5
Take B1: the Kd with cynomolgus monkey IP-10 [1] was 14900 pM; in the assay with human IP-10 [2] it was 4180 pM; in the assay with cynomolgus monkey IP-10 [4] it was 6500 pM; in the assay with human IP-10 [5], around 5000 pM; with human IP-10 [6], 8530 pM; with human IP-10 [8] it was 6270 pM. Also, the off-rate constant (koff) worked out at 0.000151 s⁻¹ with human IP-10 [2], 6.8e-05 s⁻¹ with human IP-10 [6] and 0.000138 s⁻¹ in the assay with human IP-10 [8]. In addition, the kon with human IP-10 [2] turned out to be 36200 M⁻¹ s⁻¹; with human IP-10 [6], 8000 M⁻¹ s⁻¹; with human IP-10 [8], 22000 M⁻¹ s⁻¹. The binding result in the assay with human MIG [3], with human ITAC and with mouse IP-10 was “no binding” each time. Also, in the assay with human IP-10 [7], the “estimated t1/2 (half-life of IP-10 association)” value was around 3 h.

B2: IP10.44 (antibody, human IgG1, kappa, V domains shown)
VH: QVQLVESGGGVVQPGRSLRLSCAASGFTFSEYGMHWVRQAPGKGLEWVAVIGFAGLIKGYADSVKGRFTISRDNSKNTLYLQMNSLRAEDTAVYYCAREGAGSNIYYYYGMDVWGQGTTVTVSS
VL: not shown
notes: Human IgG1 full-length antibody; also called BMS-986184; IP10.44-g1f
B2: the Kd in the assay with cynomolgus monkey IP-10 [1] was 200 pM; with human MIG [9], 168000 pM; with human IP-10 [2] it was 170 pM; with human IP-10 [11], 10 pM; with cynomolgus monkey IP-10 [4] it was 43 pM. Further, the koff amounted to 4e-06 s⁻¹ with human IP-10 [2] and 1e-07 s⁻¹ in the assay with human IP-10 [6]. In addition, the kon stood at 26200 M⁻¹ s⁻¹ with human IP-10 [2] and 11600 M⁻¹ s⁻¹ with human IP-10 [6]. For the same molecule, the “fold more potent than IP10.1 (in vivo Kd)” value with cynomolgus monkey IP-10 [10] was around 150 fold. Moreover, the binding result with human ITAC and with mouse IP-10 was “no binding” each time. Besides, the “IC50 (read off the curve)” value in the assay with cynomolgus monkey IP-10 [12] was around 300 pM. Further, the “fold improvement of KD against IP10.1” value with human IP-10 [5] was at least 50 fold. Also, the “estimated t1/2 (half-life of IP-10 association)” value in the assay with human IP-10 [7] is above 100 h. Besides, the “fold better potency than IP10.1, IL-6 secretion by hPBMCs” value with human IP-10 [13] is around 6 fold. Besides, the “fold greater potency relative to IP10.1, IL-12p40 secretion by hPBMCs” value with human IP-10 [13] worked out at 4 fold. In the assay with cynomolgus monkey IP-10 [14], the “IC50 of free serum IP-10 suppression against free drug concentration in cynomolgus monkeys” value is 223 pM. Besides, the “fold better potency than IP10.1 in blocking IP-10 binding to cells” value in the assay with human IP-10 [15] is at least 5 fold.

B3: IP10.46 (antibody, human IgG1, kappa, V domains shown)
VH: B2 VH with A23T, E31Q, G52S, F53Y, A54G, L56D, G59Y, A101E
VL: not shown
notes: IgG1 full-length variant of IP10.1; also called IP10.46-g1f
On to B3, for which the Kd was 190 pM with cynomolgus monkey IP-10 [1], 120 pM with human IP-10 [2], 110 pM in the assay with human IP-10 [6] and 77500 pM with human MIG [16]. In addition, the koff is 2e-06 s⁻¹ in the assay with human IP-10 [2] and 1e-06 s⁻¹ in the assay with human IP-10 [6]. Moreover, the results for the on-rate constant (kon) in the assay with human IP-10 [2] and with human IP-10 [6] were 13500 M⁻¹ s⁻¹ and 9600 M⁻¹ s⁻¹, respectively. Further, in the assay with human ITAC, the binding result was “no binding”.

B4: IP10.53 (antibody, human IgG1, kappa, V domains shown)
VH: B2 VH with E31D, G52S, F53H, A54N, L56A, A101D
VL: not shown
notes: IgG1 full-length variant of IP10.1; also called IP10.53-g1f
For the molecule B4, the figures for the Kd with cynomolgus monkey IP-10 [1] and with human MIG [16] were 220 pM and 54300 pM, respectively. The binding result with human ITAC was “no binding”.

B5: IP10.54 (antibody, human IgG1, kappa, V domains shown)
VH: B2 VH with A23T, E31Q, G52S, F53Y, A54G, L56D, G59Y, Q82E, V93I, A101E
VL: not shown
notes: IgG1 full-length variant of IP10.1; also called IP10.54-g1f
As for B5, in the assay with human IP-10 [2], the affinity, expressed as Kd, was 250 pM; the koff came out at 4e-06 s⁻¹; the kon amounted to 15400 M⁻¹ s⁻¹.

B6: IP10.43 (antibody, human IgG1, kappa, V domains shown)
VH: B2 VH with A23T, E31S, G52D, A54V, L56D, I57T, G59Y, A61T
VL: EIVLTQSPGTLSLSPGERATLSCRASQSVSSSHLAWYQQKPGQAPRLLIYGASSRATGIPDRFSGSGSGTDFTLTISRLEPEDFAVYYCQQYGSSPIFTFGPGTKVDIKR
notes: IgG1 full-length variant of IP10.1
In the case of B6, in the assay with human IP-10 [2], the Kd was 1640 pM, the koff was determined as 1.7e-05 s⁻¹ and the kon was 9300 M⁻¹ s⁻¹.

B7: IP10.51 (antibody, human IgG1, kappa, V domains shown)
VH: B2 VH with A23T, E31D, F53Y, A54G, N104S
VL: not shown
notes: IgG1 full-length variant of IP10.1; also called IP10.51-g1f
As for B7, the Kd with human IP-10 [2] is 960 pM.

B8: IP10.49 (antibody, human IgG1, kappa, V domains shown)
VH: B2 VH with A23T, E31Q, Y32S, A54G, G59S, A101D, N104G
VL: not shown
notes: IgG1 full-length variant of IP10.1; also called IP10.49-g1f
Consider B8, for which, in the assay with human IP-10 [2], the Kd was determined as 410 pM, the koff worked out at 6e-06 s⁻¹ and the kon came to 14700 M⁻¹ s⁻¹.

B9: IP10.45 (antibody, human IgG1, kappa, V domains shown)
VH: B2 VH with A23T, E31K, Y32H, L56V, G59S, A101E, Y107F
VL: not shown
notes: IgG1 full-length variant of IP10.1; also called IP10.45-g1f
Regarding B9, in the assay with cynomolgus monkey IP-10 [1], the Kd worked out at 4740 pM. Further, the binding result in the assay with human MIG [3] and with human ITAC was “no binding” each time.

B10: IP10.48 (antibody, human IgG1, kappa, V domains shown)
VH: B2 VH with E31N, G52D, L56I, I57N, G59Y, A101E, Y107F, Y108F
VL: not shown
notes: IgG1 full-length variant of IP10.1; also called IP10.48-g1f
In the assay with human IP-10 [2], B10 had a Kd of 340 pM, a koff of 5e-06 s⁻¹ and a kon of 14100 M⁻¹ s⁻¹.

B11: IP10.52 (antibody, human IgG1, kappa, V domains shown)
VH: B2 VH with A23T, E31D, F53Y, A54G, N104S, I105V
VL: not shown
notes: IgG1 full-length variant of IP10.1; also called IP10.52-g1f
Take B11: the Kd with cynomolgus monkey IP-10 [1] is 1430 pM; with human IP-10 [6], 40 pM; with human MIG [16] it was 73500 pM. In addition, in the assay with human ITAC, the binding result is reported as “no binding”. The koff with human IP-10 [6] was 5e-07 s⁻¹. For the same molecule, the kon with human IP-10 [6] is 13000 M⁻¹ s⁻¹.

B12: IP10.47 (antibody, human IgG1, kappa, V domains shown)
VH: B2 VH with E31T, Y32H, A54G, G59S, A101D, N104S, I105L, Y107F
VL: not shown
notes: IgG1 full-length variant of IP10.1; also called IP10.47-g1f
B12: in the assay with human IP-10 [2], binding was put at a Kd of 560 pM, the koff is 1.4e-05 s⁻¹ and the kon was determined as 24000 M⁻¹ s⁻¹.
